Test results reported in patent US20240409617A1.

Biological target: Human FcRn, biotinylated (human) (UniProt P55899)

Kd: 19.7 nM | koff: 0.00877 s⁻¹ | kon: 445000 M⁻¹ s⁻¹
Substance: Atezolizumab (antibody)
